Among the data in patent US7247703 are % Increase of class I stabilization on T2 values, retold here.

In the assay the target is HLA-A2.1 class I MHC molecule on T2 cells (human). Nature of the assay: T2 class I MHC stabilization assay, anti-HLA-A2 immunofluorescent staining, peptide vs medium alone. The following applies: remark: other sources report otherwise.
The molecule CLTSTVQLV [p 789-797 HER-2/neu peptide …] showed a % Increase of class I stabilization on T2 of 20%. Then TLSPGKNGV [p 1172-1180 HER-2/neu peptide …], with 10%. Then HLYQGCQVV [p 48-56 HER-2/neu peptide …], with 20%.
